In the experiment the target is N-terminal eGFP fused human CHFR mutant lacking forkhead-associated domain (human) (UniProt Q96EP1). The experiment can be described thus: co-IP; anti-GFP agarose beads (GFP-Trap) pull-down from lysates of HMEC transfected with eGFP-CHFR constructs, 48 h after transfection; 150 ug lysate protein, 2 h at 4 C; immunoblot for endogenous VE-cadherin; ratio of VE-cadherin to GFP-CHFR quantified.
Chain of UniProt Q96EP1 (Q96EP1 whole entry, change not shown, the tested form may be a part): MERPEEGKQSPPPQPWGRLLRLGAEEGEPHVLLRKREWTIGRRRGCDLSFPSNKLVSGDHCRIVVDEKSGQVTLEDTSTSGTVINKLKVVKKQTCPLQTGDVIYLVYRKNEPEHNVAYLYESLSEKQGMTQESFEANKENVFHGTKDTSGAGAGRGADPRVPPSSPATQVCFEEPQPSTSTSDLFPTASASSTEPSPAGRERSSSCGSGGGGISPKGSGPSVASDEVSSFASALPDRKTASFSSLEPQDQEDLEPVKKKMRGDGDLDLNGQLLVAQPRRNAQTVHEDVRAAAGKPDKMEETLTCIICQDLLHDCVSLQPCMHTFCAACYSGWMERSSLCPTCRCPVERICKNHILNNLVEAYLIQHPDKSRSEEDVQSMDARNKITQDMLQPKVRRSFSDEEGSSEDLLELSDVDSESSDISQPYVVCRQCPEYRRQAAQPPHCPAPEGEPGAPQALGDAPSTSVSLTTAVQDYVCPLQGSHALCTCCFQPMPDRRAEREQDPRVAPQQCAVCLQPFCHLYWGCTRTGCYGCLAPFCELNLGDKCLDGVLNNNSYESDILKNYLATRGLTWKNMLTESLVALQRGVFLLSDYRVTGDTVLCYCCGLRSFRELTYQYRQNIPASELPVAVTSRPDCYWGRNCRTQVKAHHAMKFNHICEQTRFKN

B1: VE-cadherin, endogenous in HMEC (natural protein)
chain: DWIWNQMHIDEEKNTSLPHHVGKIKSSVSRKNAKYLLKGEYVGKVFRVDAETGDVFAIERLDRENISEYHLTAVIVDKDTGENLETPSSFTIKVHDVNDNWPVFTHRLFNASVPESSAVGTSVISVTAVDADDPTVGDHASVMYQILKGKEYFAIDNSGRIITITKSLDREKQARYEIVVEARDAQGLRGDSGTATVLVTLQDINDNFPFFTQTKYTFVVPEDTRVGTSVGSLFVEDPDEPQNRMTKYSILRGDYQDAFTIETNPAHNEGIIKPMKPLDYEYIQQYSFIVEATDPTIDLRYMSPPAGNRAQVIINITDVDEPPIFQQPFYHFQLKENQKKPLIGTVLAMDPDAARHSIGYSIRRTSDKGQFFRVTKKGDIYNEKELDREVYPWYNLTVEAKELDSTGTPTGKESIVQVHIEVLDENDNAPEFAKPYQPKVCENAVHGQLVLQISAIDKDITPRNVKFKFILNTENNFTLTDNHDNTANITVKYGQFDREHTKVHFLPVVISDNGMPSRTGTSTLTVAVCKCNEQGEFTFCEDMAAQVGVSIQAVVAILLCILTITVITLLIFLRRRLRKQARAHGKSVPEIHEQLVTYDEEGGGEMDTTSYDVSVLNSVRRGGAKPPRPALDARPSLYAQVQKPPRHAPGAHGGPGEMAAMIEVKKDEADHDGDGPPYDTLHIYGYEGSESIAESLSSLGTDSSDSDVDYDFLNDWGPRFKMLAELYGSDPREELLY
For B1, the fold binding against WT-CHFR was determined as 2 fold.

The values are drawn from PMC10584835.
